From patent publication US20250195556A1, “COMPOSITIONS, KITS, AND METHODS TO INDUCE ACQUIRED CYTORESISTANCE USING STRESS PROTEIN INDUCERS” (FRED HUTCHINSON CANCER RESEARCH CENTER, priority 2014, published 2025)

What was measured:
HO-1 [1] = experiment: Renal cortical HO-1 mRNA and protein after FeS, SnPP or B12; format: in vivo, mice; conditions: for HO-1 protein increases (FIG. 21): within 4 hrs and persists for 18 hrs of IV injection
Excerpt: (§1) Methods. Male CD-1 mice (25-40 grams) Charles River, Wilmington, MA) were used for all experiments. They were housed under standard vivarium conditions with free food and water access. All experiments were approved by the Fred Hutchinson Cancer Research Center IACUC in accordance with NIH guidelines.
Effects of FeS, SnPP, and B12 on renal cortical induction of heme oxygenase 1 (HO-1). The following experiments assessed the effects of FeS, SnPP, and B12 on the possible induction of the cytoprotective protein HO-1. To this end, mice were injected with each of these agents, as noted above. Either 4 or 18 hrs later, they were anesthetized and the kidneys were removed through a midline abdominal incision. The renal cortices were dissected on ice and then extracted for protein and mRNA. The samples were then assayed for HO-1 protein by ELISA, and HO-1 mRNA by RT-PCR, factored by GAPDH levels. Five normal mice provided control values.

Male CD-1 mice [2] = experiment: Maleate model of AKI (FeS, SnPP, FeS+SnPP); format: in vivo; conditions: 1 mg FeS or 1 μmole SnPP IV alone 18 hrs before maleate
Excerpt: as §1
Effects of Fe sucrose (FeS)/tin protoporphyrin (SnPP) on AKI severity. Maleate model of AKI. When injected into rodents, maleate undergoes relatively selective proximal tubule cell uptake via organic anion transporters. Once intracellular accumulation occurs, maleate is a preferred substrate for succinyl-CoA: 3-oxoacid CoA transferase. […] Ample levels of CoA are essential for fatty acid “activation”, allowing for their subsequent metabolism through the Krebs cycle, yielding ATP. In the absence of this process, proximal tubule ATP depletion and cell injury result. Additionally, maleate conjugates the sulfhydryl group of glutathione (GSH), culminating in GSH depletion and potential oxidant tubular stress.
The following experiment tested whether FeS, SnPP or combined FeS+SnPP can mitigate this form of acute kidney injury (AKI). […] The severity of kidney injury was assessed by determining plasma blood urea nitrogen (BUN) and plasma creatinine (PCr) concentrations.

HK-2 cells = experiment: Myoglobin toxicity in HK-2 cells, MTT assay; format: cell-based; conditions: equimolar Na nitrite, 10 mg/ml, 18 hr
Protocol: Example 3. […] HK-2 cells (a proximal tubule cell line derived from normal human kidney) were incubated in keratinocyte serum free medium either under normal (control) conditions or in the presence of 10 mg/mL horse skeletal muscle myoglobin or nitrited myoglobin (produced by equimolar Na nitrite addition to 10 mg/ml myoglobin). After 18 hr incubations, the severity of cell injury (% cell death) was assessed by MTT assay. Myoglobin induced 40% cell death (40% decrease in MTT cell uptake), compared to control incubated cells. Nitrite binding to myoglobin reduced cell death by 75%. Thus, nitrite binding is able to reduce myoglobin's cytotoxic effects.

[3] = Serum creatinine after 2 hr subcutaneous infusion of nitrited myoglobin + SnPP; format: in vivo, mice; conditions: 2 hr subcutaneous infusion of 1, 3, 6, 12, or 25 mg/Kg + 1 μmole SnPP; 18 hrs later
Protocol: Mice were subjected to a 2 hr subcutaneous infusion of 1, 3, 6, 12, or 25 mg/Kg of nitrited myoglobin (holding SnPP at a constant dose of 1 μmole). Eighteen hrs later, potential renal injury was assessed by measuring serum creatinine concentrations.
An obvious concern by applying this prophylactic strategy to patients is potential renal and/or extrarenal toxicities. […] Furthermore, it was previously documented in a cell culture system that nitrite addition markedly reduces myoglobin's cytotoxic effects by 75% (unpublished data, 2014). To assess the potential in vivo margin of safety for N-Mgb+SnPP (see Supplemental FIGs.), the maximal amount of N-Mgb that could be given to mice before nephrotoxicity was observed was tested. Up to 25 times the employed N-Mgb dose (with a constant SnPP dose) could be administered (over 2 hours) without induction of nephrotoxicity (normal BUN and creatinine, 18 hours later).

HO-1 [4] = experiment: Renal cortical HO-1 mRNA and protein after IV N-Mgb, SnPP or both; format: in vivo, mice
Excerpt: (§2) Cytoresistance-inducing reagents. […] (#Mb0360; Sigma) was used as the primary cytoresistance-inducing agent. However, because myoglobin (Mgb) has an inherent nephrotoxic potential (particularly under conditions of volume depletion and aciduria), two approaches were used to mitigate Mgb's potential adverse effects. First, the Mgb was converted into a nitrited form by the addition of equimolar amount of sodium (Na) nitrite. In this regard, nitrite is an ambidentate molecule that directly binds 1:1 to myoglobin Fe either via its oxygen or nitrogen component. Cotton et al. Advanced inorganic chemistry. Hobocken, NJ: Wiley-Interscience, 1999:1355; Silaghi-Dumitrescu et al. Nitric Oxide 2014; 42 C: 32-9. […] Rassaf et al. Circ Res 2014; 114:1601-10; Totzeck et al. Circulation 2012; 126:325-34 [J Clin Invest 1992; 89:989-95]; Totzeck et al. PLOS One 2014; 22: e105951; Hendgen-Cotta et al. Proc Natl Acad Sci USA 2008; 105:10256-61.
(§3) Thirty-two mice were divided into 4 equal groups: (1) control mice; (2) mice treated with 1 mg of N-Mgb injection (as a bolus through the tail vein); (3) mice treated with […] of SnPP (via tail vein); and (4) mice treated with combined N-Mgb 1 SnPP. After either 4 hours (n=16) or 18 hours (n=16), the mice were deeply anesthetized with pentobarbital (50 mg/kg), the abdomen was opened through a midline abdominal incision, and the kidneys were removed. To determine potential effects on extrarenal organs, a liver lobe and the heart were also removed. The tissues were iced and then extracted for protein and RNA (RNeasy Plus Mini; Qiagen, Valencia, California) and subjected to enzyme linked immunosorbent assay (ELISA) and reverse transcriptase polymerase chain reaction (RT-PCR) for HO-1, haptoglobin, and IL-10 protein and messenger RNAs (mRNAs). Zager et al. J Am Soc Nephrol 2014; 25:998-1012; Zager et al. Am J Physiol 2012; 303: F139-48. As an assessment of renal function, control mice and the 18 hour after N-Mgb+SnPP-treated mice had blood urea nitrogen (BUN) and plasma creatinine levels measured. Additionally, transverse 10% formalin fixed kidney sections ([…]) were cut and stained with hematoxylin and eosin (H&E) and periodic acid Schiff (PAS) to further assess potential injury.

haptoglobin [5] = experiment: Renal cortical haptoglobin mRNA and protein after IV N-Mgb, SnPP or both; format: in vivo, mice
Excerpt: as §2, §3

IL-10 [6] = experiment: Renal cortical IL-10 mRNA and protein after IV N-Mgb, SnPP or both; format: in vivo, mice; conditions: for Kidney protein: IL-10: control 304
Excerpt: as §2, §3

Male CD-1 mice [7] = experiment: Glycerol model of rhabdomyolysis-induced AKI (Example 4); format: in vivo; conditions: IV pretreatment 18 hours before glycerol; 18 hours after glycerol
Protocol: Assessments of cytoresistance. Glycerol model of rhabdomyolysis-induced AKI. Twenty mice were divided into 4 equal groups (controls, mice treated with N-Mgb, SnPP, and mice treated with N-Mgb+SnPP tail vein injections) as described previously. 18 hours later, the mice were briefly anesthetized with isoflurane and immediately injected with 9 mL/kg of 50% glycerol, administered in equally divided doses into each hind limb. At 18 hours after glycerol injection, the mice were anesthetized with pentobarbital, the abdomen was opened, a blood sample for BUN and creatinine assessments was obtained from the vena cava, and the kidneys were resected. The control post-glycerol group and the N-Mgb+SnPP-pretreated glycerol group had kidney sections stained with H&E.
Calculations and statistics. All values are given as the mean […] standard error of the mean. Statistical comparisons were made by unpaired Student's t test. If multiple comparisons were made, the Bonferroni correction was applied. The severity of renal histologic injury in the glycerol AKI model was graded on a […] (least to most severe tubular necrosis and cast formation observed). The histologic results were compared by Wilcoxon rank sum test. Statistical significance was taken as a P value of <0.05.

HO-1 [8] = experiment: Liver HO-1 mRNA and protein after IV N-Mgb, SnPP or both; format: in vivo, mice; conditions: for Liver mRNA: HO-1: control 1.1; for Liver protein: HO-1 protein: control 10.2
Protocol: as §3

haptoglobin [9] = experiment: Liver haptoglobin mRNA and protein after IV N-Mgb, SnPP or both; format: in vivo, mice; set-up: Liver protein: Haptoglobin: unit not given beside the values; conditions: for Liver mRNA: Haptoglobin: control 0.5; for Liver protein: Haptoglobin: control 115.3
Protocol: as §3

IL-10 [10] = experiment: Liver IL-10 mRNA and protein after IV N-Mgb, SnPP or both; format: in vivo, mice; conditions: for Liver mRNA: IL-10: control 0.06; for Liver protein: IL-10: control 314
Protocol: as §3

HO-1 [11] = experiment: Cardiac HO-1 mRNA and protein after IV N-Mgb, SnPP or both; format: in vivo, mice; conditions: for Cardiac mRNA: HO-1: control 0.07
Protocol: as §3

haptoglobin [12] = experiment: Cardiac haptoglobin mRNA and protein after IV N-Mgb, SnPP or both; format: in vivo, mice; conditions: for Cardiac mRNA: Haptoglobin: control 0.31; for Cardiac protein: Haptoglobin: control 15.6
Protocol: as §3

IL-10 [13] = experiment: Cardiac IL-10 mRNA and protein after IV N-Mgb, SnPP or both; format: in vivo, mice; conditions: for Cardiac mRNA: IL-10: control 0.36
Protocol: as §3

[14] = read-out: affinity to heme (KD); cited from earlier work

cyanocobalamin [B12]
HO-1 protein increases (FIG. 21) (HO-1 [1]): marked HO-1 protein increases

iron sucrose [FeS]
Severity of maleate-induced renal injury (BUN, PCr) (Male CD-1 mice [2]): Neither SnPP alone nor FeS alone significantly altered
Renal cortical HO-1 protein levels (HO-1 [1]; 18 hr time point): remained elevated
HO-1 protein increases (FIG. 21) (HO-1 [1]): marked HO-1 protein increases

B1: N-Mgb: horse skeletal muscle myoglobin converted into a nitrited form by addition of equimolar sodium nitrite (protein, UniProt P68082 2-154, looked up)
Myoglobin: GLSDGEWQQVLNVWGKVEADIAGHGQEVLIRLFTGHPETLEKFDKFKHLKTEAEMKASEDLKKHGTVVLTALGGILKKKGHHEAELKPLAQSHATKHKIPIKYLEFISDAIIHVLHSKHPGDFGADAQGAMTKALELFRNDIAAKYKELGFQG
modifications: nitrited with sodium nitrite
Reduction of myoglobin-induced cell death by nitrite binding (HK-2 cells): 75%
Serum creatinine concentrations [3]: No significant increase
Kidney mRNA: HO-1 (HO-1 [4]; 4 h after Rx, control 0.61): 3.38 ± 0.38
Kidney HO-1 protein (HO-1 [4]; 4 h after Rx, control 13.3): 36.1 ± 2.9
Kidney mRNA cortex: HO-1 (HO-1 [4]; 18 h after Rx, control 0.61): 0.58 ± 0.18
Kidney protein: HO-1 (HO-1 [4]; 18 h after Rx, control 13.3): 30 ± 6
Kidney mRNA: Haptoglobin (haptoglobin [5]; 4 h after Rx, control 0.20): 1.94 ± 0.31
Kidney protein: Haptoglobin (haptoglobin [5]; 4 h after Rx, control 7.9): 17.6 ± 1^
Kidney mRNA cortex: Haptoglobin (haptoglobin [5]; 18 h after Rx, control 0.20): 0.24 ± 0.04
Kidney protein: Haptoglobin (haptoglobin [5]; 18 h after Rx, control 10.3): 183.8 ± 20.4
Kidney mRNA: IL-10 (IL-10 [6]; 4 h after Rx, control 0.56): 1.45 ± 0.6
Kidney protein: IL-10 (IL-10 [6]; 4 h after Rx): 265 ± 54
Kidney mRNA cortex: IL-10 (IL-10 [6]; 18 h after Rx, control 0.56): 0.43 ± 0.10
Kidney protein: IL-10 (IL-10 [6]; 18 h after Rx): 292 ± 54
Protection against glycerol-induced AKI (BUN/creatinine levels) (Male CD-1 mice [7]): modest protection
Liver mRNA: HO-1 (HO-1 [8]; 4 h after Rx): 1.83 ± 0.33
Liver protein: HO-1 protein (HO-1 [8]; 4 h after Rx): 17 ± 2
Liver mRNA: HO-1 (HO-1 [8]; 18 h after Rx): 0.82 ± 0.07
Liver protein: HO-1 protein (HO-1 [8]; 18 h after Rx): 14.9 ± 0.3
Liver mRNA: Haptoglobin (haptoglobin [9]; 4 h after Rx): 0.98 ± 0.1
Liver protein: Haptoglobin (haptoglobin [9]; 4 h after Rx): 359.5 ± 39.6
Liver mRNA: Haptoglobin (haptoglobin [9]; 18 h after Rx): 0.91 ± 0.07
Liver protein: Haptoglobin (haptoglobin [9]; 18 h after Rx): 358.8 ± 32.8
Liver mRNA: IL-10 (IL-10 [10]; 4 h after Rx): 0.67 ± 0.46
Liver protein: IL-10 (IL-10 [10]; 4 h after Rx): 286 ± 32
Liver mRNA: IL-10 (IL-10 [10]; 18 h after Rx): 0.06 ± 0.02
Liver protein: IL-10 (IL-10 [10]; 18 h after Rx): 5988 ± 549
Cardiac mRNA: HO-1 (HO-1 [11]; 4 h after Rx): 0.09 ± 0.01
Cardiac protein: HO-1 (HO-1 [11]; 4 h after Rx, control 1.50): 1.64 ± 0.19
Cardiac mRNA: HO-1 (HO-1 [11]; 18 h after Rx): 0.08 ± 0.01
Cardiac mRNA: Haptoglobin (haptoglobin [12]; 4 h after Rx): 0.75 ± 0.10
Cardiac protein: Haptoglobin (haptoglobin [12]; 4 h after Rx): 40.4 ± 8.6
Cardiac mRNA: Haptoglobin (haptoglobin [12]; 18 h after Rx): 0.53 ± 0.21
Cardiac protein: Haptoglobin (haptoglobin [12]; 18 h after Rx): 249.6 ± 15.0
Cardiac mRNA: IL-10 (IL-10 [13]; 4 h after Rx): 0.86 ± 0.11
Cardiac protein: IL-10 (IL-10 [13]; 4 h after Rx, control 8.1): 21 ± 12
Cardiac mRNA: IL-10 (IL-10 [13]; 18 h after Rx): 0.67 ± 0.10
Cardiac protein: IL-10 (IL-10 [13]; 18 h after Rx, control 8): 14.5 ± 10^

B2: Hemopexin: 60 kDa plasma protein that sequesters free heme; protective stress protein (background) (protein, listed as Homo sapiens)
chain: MARVLGAPVALGLWSLCWSLAIATPLPPTSAHGNVAEGETKPDPDVTERCSDGWSFDATTLDDNGTMLFFKGEFVWKSHKWDRELISERWKNFPSPVDAAFRQGHNSVFLIKGDKVWVYPPEKKEKGYPKLLQDEFPGIPSPLDAAVECHRGECQAEGVLFFQGDREWFWDLATGTMKERSWPAVGNCSSALRWLGRYYCFQGNQFLRFDPVRGEVPPRYPRDVRDYFMPCPGRGHGHRNGTGHGNSTHHGPEYMRCSPHLVLSALTSDNHGATYAFSGTHYWRLDTSRDGWHSWPIAHQWPQGPSAVDAAFSWEEKLYLVQGTQVYVFLTKGGYTLVSGYPKRLEKEVGTPHGIILDSVDAAFICPGSSRLHIMAGRRLWWLDLKSGAQATWTELPWPHEKVDGALCMEKSLGPNSCSANGPGLYLIHGPNLYCYSDVEKLNAAKALPQPQNVTSLLGCTH
Kd [14]: < 1 pM
